# Test results published in the nanobody polyreactivity screen of Harvey et al. (2022).
# Assay: yeast display, Sf9 membrane polyspecificity reagent, FACS + sequencing; frameworks hold sequencing errors
# Summary of the method: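 Galactose-induced (36–48 hours) yeast carrying a synthetic nanobody display library were exposed to 10% biotinylated, detergent-solubilized Sf9 membrane reagent at 4 °C for 1 hour. FACS followed streptavidin microbead enrichment, using low and high (top ~1%) gates for expression (anti-HA) and reagent binding (streptavidin). Colony PCR, MiSeq 2 × 250 sequencing and CDR-length filtering followed. Labels for polyreactivity reflect the gate of origin.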
row,Sequence,polyreactivity (PSR sort gate)
1,QVQLVESGGGLVQAGGSLRLSCAASGRIFGVYAMGWYRPAPGKERELVAGINGGDSTYYADSVKGRFTISRDNAKNTVYLQMNSLKPEDTAVYYCAAEADESGSNYDYWGQGTQVTVSS,low polyreactivity
2,QVQLVESGGGLVQAGGSLRLSCAASGRIFGVYAMGWYRQAPGKDRELVAAITSSGGRTYYADSVKGRFTISRDNAKNTVYLQMNSLKPEDTGVYYCAALGWSRRGKFNYWGQGTQVTVSS,high polyreactivity
3,QVQLVESGGGLVQAGGSLRLSCAASGRIFGVYAMGWYRQAPGKERELVAAISRGGSTKYADSVKGRFTISRDNAKNTVYLQMNSLKPEDTAVYYCAARRWGRVYTTYTGGYWGQGTQVTVSS,high polyreactivity
4,QVQLVESGGGLVQAGGSLRLSCAASGRIFGVYAMGWYRQAPGKERELVAAITFNAGSTYYADSVKGRFTISRDNAKNTVYLQMNSLIPEDTAVYYCNAYTESWYPIYFFGWSYTDVDYWGQGTQVTVSS,low polyreactivity
5,QVQLVESGGGLVQAGGSLRLSCAASGRIFGWYTMGWYRQAPGKERELVAVISSGGSTNYADSVKGRFTISRDNAKNTVYLQMNSLKPEDTAVYYCAAGGQGGDFGDDYWGQGTQVTVSS,high polyreactivity
6,QVQLVESGGGLVQAGGSLRLSCAASGRIFGYNAMGWYREAPGKERELVAAITGSGGSTYYADSVKGRFTISRDNAKNTVYLQMNSLKPEDTAVYYFATAYAVYHVEYGYWGQGTQVTVSS,low polyreactivity
7,QVQLVESGGGLVQAGGSLRLSCAASGRIFGYNAMGWYRPAPGKEREVVAAISWNGGSTYYADSVKGRFTISRDNAKNTVYLQMNSLKPEDTAVYYCNADPSDRRYPHTWTKMGYWGQGTQVTVSS,low polyreactivity
8,QVQLVESGGGLVQAGGSLRLSCAASGRIFGYNAMGWYRQAPGKERELVAAITNGGSTNYADSVKGRFTISRDNAKNTVYLQMNSLKPEDTAVYYCVAYVGSTYSAPEYYWGQGTQVTVSS,low polyreactivity
9,QVQLVESGGGLVQAGGSLRLSCAASGRIFGYNDMGLYRQAPGKERELVAAINWTGGSTYYADSVKGRFTISRDNAKNTVYLQMNSLKPEDTAVYYCNADARTKWVQTHTDFITDYDYWGQGTQVTVSS,low polyreactivity
10,QVQLVESGGGLVQAGGSLRLSCAASGRIFGYNGMGWYRQAPGKERELVAAITSGGRTYYADSVKGRFTISRDNAKNTVYLQMNSLKPEDTAVYYCAAYFYQRGYGYVGPYGYWGQGTQVTVSS,high polyreactivity
11,QVQLVESGGGLVQAGGSLRLSCAASGRIFGYNVMGWYRQAPGKERELVAAISYSGGSTYYADSVKGRFTISRDNAKNTVYLQMNSLKPEDTAVYYCNAGYRGSSKYNYWGQGTQVTVSS,high polyreactivity
12,QVQLVESGGGLVQAGGSLRLSCAASGRIFGYTMGWYRQAPGKERELVAAISKSGGSTYYADSVKGRFTISRDNAMNTVYLQMNSLKPEDTAVYYCNKPQRILYDYWGQGTQVTVSS,high polyreactivity
13,QVQLVESGGGLVQAGGSLRLSCAASGRIFGYYAMGWSRQAPGKEREFVAAINWRGSSTTYADSVKGRFTISRDNAKNTVYLQMNSLKPEDTAVYYCKRVFGGGQWVYGYWGQGTQVTVSS,high polyreactivity
14,QVQLVESGGGLVQAGGSLRLSCAASGRIFGYYAMGWYRQAPGKERELVAAIRWSSGRTYYADSVKGRFTISRDNAKNTVYLQMNSLKPEDTAVYYCAKDGGLRKFDYWGQGTQVTVSS,high polyreactivity
15,QVQLVESGGGLVQAGGSLRLSCAASGRIFGYYAMGWYRQAPGKERELVAAISRSGSSTYYADSVKGRFTISRDNAKNTVYLQMNSLKPEDTAVYYCNSEKYYRAYLLPFNYWGQGTQVTVSS,high polyreactivity
16,QVQLVESGGGLVQAGGSLRLSCAASGRIFGYYAMGWYRQAPGKERELVAAISYSGGRTYYADSVKGRFTISRDNAKNTVYLQMNSLKPEDTAVYYCNARSRSYKWYTRTGYGYDYWGQGTQVTVSS,high polyreactivity
17,QVQLVESGGGLVQAGGSLRLSCAASGRIFGYYAMGWYRQAPGKERELVAAISYSGGSTYYADSVKGRFTISRDNAKYTVFLQMNSLKPEDTAVYYCNKVYSIRGYWGQGTQVTVSS,high polyreactivity
18,QVQLVESGGGLVQAGGSLRLSCAASGRIFGYYAMGWYRQAPGKERELVAAITRGGSTNYADSVKGRFTISRDNAKNTVYLQMNSLKPEDTAVYYCNARRYRPGSASYDYWGQGTQVTVSS,high polyreactivity
19,QVQLVESGGGLVQAGGSLRLSCAASGRIFGYYAMGWYRQAPGKERELVAAITSGGRTYYADSVKGRFTISRDNAKNTVFLQMNSLKPEDTAVNYCAAVRALRKVRDYYYWGQGTQVTVSS,high polyreactivity
20,QVQLVESGGGLVQAGGSLRLSCAASGRIFGYYAMGWYRQAPGKERELVATITFGGGSTYYADSVKGRFTISRDNAKNTVYLQMNSLIPEDSAVYYCAADSGYLGIYGDEYSWGQGTQVTVSS,low polyreactivity

row,Sequence,polyreactivity (PSR sort gate)
1,QVQLVESGGGLVQAGGSLRLSCAASGRIFGYYAMVCYRQAPGKERELVAAISSGGGSTYYADSVKGRFTISRDNAKNTVYLQMNSLKPEDTAVYYCIVAYRWSTRYDYWGQGTQVTVSS,high polyreactivity
2,QVQLVESGGGLVQAGGSLRLSCAASGRIFGYYVMGWYRQAPGKERELVAAIRSSADSTYYADSVKGRFTISRDNAKNTVYFQMNSLKPEDTAVYYCAAQSPAYYTKSYWGQGTQVTVSS,low polyreactivity
3,QVQLVESGGGLVQAGGSLRLSCAASGRIFHGNAMGWYRQAPGKERELVARISSSGGGTYYADSVKGRFTISRDNAKNTVYLQMNSLKPEDTAVYYCAARRPDHTEVSNLRYDSWGQGTQVTVSS,low polyreactivity
4,QVQLVESGGGLVQAGGSLRLSCAASGRIFHGYAMGWYRQAPGKDRELVAVIRSGVNTNYADSVKGRFTISRDNAKNTVYLQMNSLKPADTAVYYCAVDYTPEDWGDDYWGQGTHVTVSS,low polyreactivity
5,QVQLVESGGGLVQAGGSLRLSCAASGRIFHHNAMVSYRQAPGKEMELVATITWSGGRTYYADSVKGRFTISRDNAKNTVYLQMNSLKPEDTAVYYCAASSYSYYGYRSYQSTYYYWGQGTQVTVSS,low polyreactivity
6,QVQLVESGGGLVQAGGSLRLSCAASGRIFHHNVMGWYRPAPGKERELVAAISQSGGSTYYADSVKGRFTISRDNAKYTVYVQMNSLKPEDTAVYYCNAGAAGRRYNYWGQGTQVTVSS,low polyreactivity
7,QVQLVESGGGLVQAGGSLRLSCAASGRIFHIYAMGWYRQAPGKERELVAAIRSSGGSTYYADSVKGRFTISRDNAKNTVYLQMNSLKPEDTAVYYCAVDYGNPVYWDEMYYWGQGTQVTVSS,low polyreactivity
8,QVQLVESGGGLVQAGGSLRLSCAASGRIFHRYAMGWYRQAPGKEREFVAAISSRGGSTYYADSLKGRFTISRDTAKNTVDFQINSLKPEETAVYYCAAQIGYRSGEFYYWGQGTQVTVSS,high polyreactivity
9,QVQLVESGGGLVQAGGSLRLSCAASGRIFHTYAMGWYIQAPGKERELVAAISRSGGSTYYADSVKGRFTISRDNAKNTVYLQMNSLKPEDTAVYYCAADIRGPYGNRYKFYYWGQGTQVTVSS,high polyreactivity
10,QVQLVESGGGLVQAGGSLRLSCAASGRIFHYAMGWYRQAPGKERELVAGISKRGGSTYYADSVKGRFTISRDNAKNTVYLQMNSLKPEDTAVYYCAAGRAYDGTKHDYWGQGSQVTVSS,high polyreactivity
11,QVQLVESGGGLVQAGGSLRLSCAASGRIFHYNAMGWYRQAPGKERELVAAISTGGSTNYADSVKGRFTISRDNAKNTFYLQMYSLKPEDTAVYYCAADHPVTYPTSKFDFWGQGTQVTVSS,low polyreactivity
12,QVQLVESGGGLVQAGGSLRLSCAASGRIFHYYAMGWYRQAPGKERELVAAISWSGGSTYYADSVKGRFTISRDNAKNTVYLQMNSLKPEETAVYYCAARYVKTKGSFVVGYGYWGQGTQVTLSS,high polyreactivity
13,QVQLVESGGGLVQAGGSLRLSCAASGRIFIANTMGWYRQAPGKERELVAAITQRGDSTYYADSVKGRFTISRDNAKNTVYLQMNSLKPVDTAVYYCAARSFRKYYIRYDYWGQGTQVTVSS,high polyreactivity
14,QVQLVESGGGLVQAGGSLRLSCAASGRIFIAYTMGWYRPAPGKERELVAAITWNGGSTYYADSVKGRFTISRDNAKNTVYLQMNSLKPEDTAVYYWVVVSRPGPKPAREMDYWGQGTQVTVSS,low polyreactivity
15,QVQLVESGGGLVQAGGSLRLSCAASGRIFIDNAMGWYRQAPGKERELVAAISWTGGRTYYADSVKGRFTISRDNAKKTVYLQMNSLKPEDPAVYYCAAKQYTRFGYYYWGQGSQVTVSS,high polyreactivity
16,QVQLVESGGGLVQAGGSLRLSCAASGRIFIEYAMGWYRQAPGKERELVATINSSGGRTYYADSVKGRFTISRDNAKNTVYLQMNSLKPEDTAVYYCAARGSYRGPYNVEYDSWGQGTQVTVSS,low polyreactivity
17,QVQLVESGGGLVQAGGSLRLSCAASGRIFIQYGMVWYRQAPGKERELVAAIRSGDSTNYADSVKGRFTISRDNAKNTVYLQMNSLKPEDTSVYYCARDRPGDYAGYDYWGQGTQVTVSS,low polyreactivity
18,QVQLVESGGGLVQAGGSLRLSCAASGRIFIRDARGWYRPAPGKERELVAALTRGGSTYYADSVKGRFTISRDTAKNTVYLQMNSLKPEDTAVYYCAARVGYPYYYWGQGTQVTVSS,high polyreactivity
19,QVQLVESGGGLVQAGGSLRLSCAASGRIFIRNDMGWYRQAPGKERELVAVITRSGGRTYYADSVKGRFTISRDNAMNTVYLQMNSLKPEDTAVYYCAKRQAFKQAPYEYWGQGSQVTVSS,low polyreactivity
20,QVQLVESGGGLVQAGGSLRLSCAASGRIFISNAMGWYRQAPGKERELVAAITWIGDRTYYADSVKGRFTISRDNAKITVYLQMNSLKPEDTAVYYCNRVTSRVSGRYSYDYWGQGTQVTVSS,high polyreactivity
